Where a chain is given by its changes, count along the chain named.

From US20220041999A1 (NEOGENE THERAPEUTICS B V, published 2022) come the findings set out here.

Experiment [1] has as its target T1, sFOS-mDHFR_B (murine).
T1 chain: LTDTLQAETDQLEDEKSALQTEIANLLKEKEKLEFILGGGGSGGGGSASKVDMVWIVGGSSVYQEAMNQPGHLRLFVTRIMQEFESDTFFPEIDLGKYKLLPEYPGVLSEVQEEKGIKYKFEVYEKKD
Description: cell-based or functional assay.

The target of experiment [2] is T2, FOS^MUT3AA-mDHFR_B.
T2 chain: T1 chain with E8K, E13K, E22R
Description: cell-based or functional assay.

Experiment [3] has as its target T3, FOS^MUT4AA-mDHFR_B.
T3 chain: T1 chain with E8K, E13K, E22R, E29K
The experiment can be described thus: cell-based or functional assay.

The target of experiment [4] is T4, sFOS^MUT8AA-mDHFR_B.
T4 chain: T1 chain with T2R, E8K, E13K, E15N, K16Q, E22R, E29K, K30Q
The experiment can be described thus: cell-based or functional assay.

Experiment [5] addresses T5, FOS-mDHFRmt_B.
T5 chain: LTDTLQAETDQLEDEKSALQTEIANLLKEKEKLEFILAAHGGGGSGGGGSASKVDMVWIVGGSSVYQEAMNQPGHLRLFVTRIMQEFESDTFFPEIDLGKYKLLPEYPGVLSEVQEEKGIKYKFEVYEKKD
The experiment can be described thus: cell-based or functional assay.

Experiment [6] has as its target T3, FOS^MUT4AA-mDHFR_B. Description: split-DHFR complementation, 100 nM MTX 10 days, FACS. From the text:
(§1) FIGS. 44A-44D show the results of MTX selection of double engineered BC76 T cells. Activated human primary T cells isolated from a buffy coat, BC76, were double-infected with retroviral vectors encoding an MTX-resistant murine DHFR^FS mutant (mDHFR) split into an N-terminal and C-terminal protein half (vector A and B), fused to heterodimerizing JUN-FOS leucine zippers. JUN^WT depicts a wildtype JUN leucine zipper, FOS^WT depicts a wildtype FOS leucine zipper, JUN^MUT3AA depicts a mutant JUN leucine zipper containing three acidic amino acids from FOS, FOS^MUT3AA depicts a mutant FOS leucine zipper containing three basic amino acids from JUN, JUN^MUT4AA depicts a mutant JUN leucine zipper containing four acidic amino acids from FOS, FOS^MUT4AA depicts a mutant FOS leucine zipper containing four basic amino acids from JUN. Vector A and B also encoded a Ly6G and CD90.2 transduction marker, respectively. Starting at 4 days post transduction, cells were either left untreated (row 1), or were treated with 100 nM MTX for 10 days (row 2), after which enrichment of double transduced cells was measured by FACS analysis.

The target of experiment [7] is T6, FOS^WT-mDHFR_B.
T6 chain: T5 chain
Description: cell-based or functional assay.

Experiment [8] deals with T6, FOS^WT-mDHFR_B. Description: split-DHFR complementation, 100 nM MTX 10 days, FACS.
Excerpt: as §1

In experiment [9] the target is T7, FOS-mDHFRmt_B-2A.
T7 chain: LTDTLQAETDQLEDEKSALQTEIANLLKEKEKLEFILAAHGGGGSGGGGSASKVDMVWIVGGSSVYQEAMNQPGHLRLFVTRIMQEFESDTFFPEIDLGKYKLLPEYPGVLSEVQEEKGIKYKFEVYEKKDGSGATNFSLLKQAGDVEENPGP
Description: cell-based or functional assay.

For the molecule sJUN-mDHFR_A, in experiment [1], the fold enrichment of double transduced T cells (FACS), 100 nM MTX 6 days (FIGS. 51A-51B) was determined as 12.3 fold; the fold enrichment of double transduced T cells (FACS), shorter zippers, donor A, 100 nM MTX 6 days (FIG. 49) came to 66 fold; the fold enrichment of double transduced T cells (FACS), shorter zippers, donor B, 100 nM MTX 6 days (FIG. 49) worked out at 7.6 fold. In experiment [2], this molecule displayed a fold enrichment of double transduced T cells (FACS), shorter zippers, donor A, 100 nM MTX 6 days (FIG. 49) of 1.7 fold and a fold enrichment of double transduced T cells (FACS), shorter zippers, donor B, 100 nM MTX 6 days (FIG. 49) of 1.4 fold. In addition, in experiment [3], the fold enrichment of double transduced T cells (FACS), shorter zippers, donor A, 100 nM MTX 6 days (FIG. 50) came to 1.5 fold and the fold enrichment of double transduced T cells (FACS), shorter zippers, donor B, 100 nM MTX 6 days (FIG. 50) is 1.2 fold. Also, the fold enrichment of double transduced T cells (FACS), 100 nM MTX 6 days (FIGS. 51A-51B) in [4] stood at 1.5 fold.

B1: JUN-mDHFRmt_A (other)
chain: RIARLEEKVKTLKAQNSELASTANMLREQVAQLKQKVMNHGGGGSGGGGSMVRPLNCIVAVSQNMGIGKNGDFPWPPLRNESKYFQRMTTTSSVEGKQNLVIMGRKTWFSIPEKNRPLKDRINIVLSRELKEPPRGAHFLAKSLDDALRLIEQPEL
As for B1, in experiment [5], the “fold enrichment of double transduced T cells (FACS), BC45, 50 nM MTX 4 days” value stood at 4.4 fold; the “fold enrichment of double transduced T cells (FACS), BC45, further 100 nM MTX 3 days, row 2” value came to 11.3 fold; the “fold enrichment of double transduced T cells (FACS), BC45, further 100 nM MTX 3 days, row 3” value worked out at 94 fold; the “fold enrichment of double transduced T cells (FACS), BC46, 50 nM MTX 4 days” value was determined as 6.2 fold. Also, in [5], the “fold enrichment of double transduced T cells (FACS), BC46, further 100 nM MTX 3 days, row 2” value was found to be 4 fold and the “fold enrichment of double transduced T cells (FACS), BC46, further 100 nM MTX 3 days, row 3” value was determined as 23.2 fold.

B2: JUN^WT-mDHFR_A (other)
chain: B1 chain
With B2, the binding result in experiment [6] was “no binding”. Moreover, the figures for the “fold enrichment of double transduced T cells (FACS), BC54, 100 nM MTX 2 days” value (“fold enrichment … 100 nM MTX 2 days” for short) in [7] and in experiment [2] were 6.8 fold and 1.9 fold, respectively. The “fold enrichment of double transduced T cells (FACS), BC76, 100 nM MTX 10 days” value (from here on “fold enrichment … 100 nM MTX 10 days”) amounted to 132 fold in [7], 3.1 fold in experiment [2] and 1.4 fold in experiment [3]. For the same molecule, the “fold enrichment of double transduced T cells (FACS), donor B, 100 nM MTX 4 days” value (shortened to “fold enrichment … 100 nM MTX 4 days”) in experiment [7] worked out at 15.5 fold; in experiment [2], 4 fold.

B3: JUN^MUT3AA-mDHFR_A (other)
chain: RIARLEEEVKTLEAQNSELASTANMLEEQVAQLKQKVGGGGSGGGGSMVRPLNCIVAVSQNMGIGKNGDFPWPPLRNESKYFQRMTTTSSVEGKQNLVIMGRKTWFSIPEKNRPLKDRINIVLSRELKEPPRGAHFLAKSLDDALRLIEQPEL
On to B3, for which, in experiment [1], the fold enrichment of double transduced T cells (FACS), shorter zippers, donor A, 100 nM MTX 6 days (FIG. 49) is 3.2 fold and the fold enrichment of double transduced T cells (FACS), shorter zippers, donor B, 100 nM MTX 6 days (FIG. 49) was 1.5 fold. In experiment [7], the “fold enrichment … 100 nM MTX 2 days” value worked out at 3.9 fold; the “fold enrichment … 100 nM MTX 10 days” value is 19 fold; the “fold enrichment … 100 nM MTX 4 days” value was 11.2 fold. In [2], the “fold enrichment … 100 nM MTX 2 days” value stood at 5.6 fold; the “fold enrichment … 100 nM MTX 10 days” value is 72 fold; the “fold enrichment … 100 nM MTX 4 days” value came to 10.5 fold; the “fold enrichment of double transduced T cells (FACS), shorter zippers, donor A, 100 nM MTX 6 days (FIG. 49)” value worked out at 49 fold. Further, the “fold enrichment of double transduced T cells (FACS), shorter zippers, donor B, 100 nM MTX 6 days (FIG. 49)” value in experiment [2] is 6.6 fold.

B4: sJUN^MUT8AA-mDHFR_A (other)
chain: B3 chain with R1T, Q15K, N16E, Q29K, K34E
With B4, the “fold enrichment of double transduced T cells (FACS), 100 nM MTX 6 days (FIGS. 51A-51B)” value is 0.9 fold in [1] and 2.2 fold in experiment [4].

B5: JUN^MUT4AA-mDHFR_A (other)
chain: B3 chain with K34E
Turning to B5, the binding result in experiment [8] was “no binding”. In experiment [1], this molecule displayed a fold enrichment of double transduced T cells (FACS), shorter zippers, donor A, 100 nM MTX 6 days (FIG. 50) of 2.2 fold and a fold enrichment of double transduced T cells (FACS), shorter zippers, donor B, 100 nM MTX 6 days (FIG. 50) of 1.5 fold. Moreover, the “fold enrichment … 100 nM MTX 10 days” value in [7] came to 2.6 fold. For the same molecule, in experiment [3], the “fold enrichment of double knock-in T cells (FACS), BC78, 100 nM MTX 6 days” value worked out at 54 fold; the “fold enrichment … 100 nM MTX 10 days” value came to 70 fold; the “fold enrichment of double transduced T cells (FACS), shorter zippers, donor A, 100 nM MTX 6 days (FIG. 50)” value was 39 fold; the “fold enrichment of double transduced T cells (FACS), shorter zippers, donor B, 100 nM MTX 6 days (FIG. 50)” value was found to be 4.7 fold.

B6: JUN-mDHFRmt_A-2A (other)
chain: RIARLEEKVKTLKAQNSELASTANMLREQVAQLKQKVMNHGGGGSGGGGSMVRPLNCIVAVSQNMGIGKNGDFPWPPLRNESKYFQRMTTTSSVEGKQNLVIMGRKTWFSIPEKNRPLKDRINIVLSRELKEPPRGAHFLAKSLDDALRLIEQPELGSGATNFSLLKQAGDVEENPGP
On to B6, for which, in experiment [9], the “fold enrichment of double transduced T cells (FACS), BC45, 25 nM MTX 4 days” value was 5.3 fold; the “fold enrichment of double transduced T cells (FACS), BC45, 50 nM MTX 4 days” value was determined as 10.5 fold; the “fold enrichment of double transduced T cells (FACS), BC45, further 100 nM MTX 3 days, row 2” value was found to be 15.5 fold; the “fold enrichment of double transduced T cells (FACS), BC45, further 100 nM MTX 3 days, row 3” value is 18.9 fold. In experiment [9], the “fold enrichment of double transduced T cells (FACS), BC46, 25 nM MTX 4 days” value was 3.6 fold; the “fold enrichment of double transduced T cells (FACS), BC46, 50 nM MTX 4 days” value amounted to 8.3 fold; the “fold enrichment of double transduced T cells (FACS), BC46, further 100 nM MTX 3 days, row 2” value came to 10.4 fold; the “fold enrichment of double transduced T cells (FACS), BC46, further 100 nM MTX 3 days, row 3” value was 16.9 fold.
